Results from the supplement of paper PMC9170038.

Tested on: MS2 coat protein
Assay: apparent KD of MS2 coat protein; designed switch direction (-1 OFF switch, 1 ON switch): -1; higher = weaker reporter binding
Procedure, shortened: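 Designed RNA switches with common flanks were transcribed on Illumina chips by stalled E. coli RNA polymerase and titrated with SNAP-549-labelled MS2 coat protein, from 0.7 or 1.5 nM doubling to 3 µM, in Tris-HCl pH 7.5 buffer with KCl, MgCl2, BSA, DTT, tRNA and Tween-20. Steps lasted 0.8–1.5 h (lowest) to 10–20 min (highest). Titrations ran without input, with 200 uM small-molecule ligand, or with an oligonucleotide input. Normalised cluster fluorescence was curve-fitted, and apparent KD is the per-design median over clusters.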

[1] = Eterna round: R95, input ligand: FMN 200 uM
[2] = Eterna round: R95, input ligand: microRNA oligo, concentration not stated
[3] = Eterna round: R95, input ligand: none
[4] = input ligand: microRNA oligo, concentration not stated

Sequence	apparent KD of MS2 coat protein [1]	apparent KD of MS2 coat protein [2]	apparent KD of MS2 coat protein [3]	apparent KD of MS2 coat protein (input ligand: FMN 200 uM)	apparent KD of MS2 coat protein [4]	apparent KD of MS2 coat protein (input ligand: none)
AGUACUAACACGAAAGUGUUAGUACUAUAAGCUUGUGUUACAUGAGGAUCACCCAUGUCCUCAUAAGCUCGUCUUAU [JL-sv3-2.15 mat747 mod] (puzzle: Sensor v3, turn-off variant 2)	86.4 nM	31.8 nM	115 nM	–	–	–
GUGGUGACAGGAUAUACAUGAGGAUCACCCAUGUGAGGAGGACGAGACAGGUGAAGGAGUAGAAGGGUCAGAGA [JR_Exclu3_Sub026] (puzzle: Exclusion 3)	134 nM	61.9 nM	95.6 nM	–	–	–
UUUUAACAUGAGGAUCACCCAUGUGAGGAUAUCGAAAUUUAUAUUAAUAUUUAUAAAUCGAGAAGGCACAUUUU [JMF 52] (puzzle: Exclusion 1)	–	139 nM	–	–	–	–
ACAACAUGAGGAUCACCCAUGUGUGUUGUCCCAUGUGUGUAUAAGGAUAUAUGAAGGAAGGAGGAAUAGAAGGUAUAGAAGGAG [Am I even doing this right] (Eterna round: R96, puzzle: Exclusion NG 3)	–	–	–	84.1 nM	9.25 nM	1200 nM
ACAUGUUGCGCAGGAUAUGAGACACAUGAGGAUCACCCAUGUGGUUACAUGUCUUACCAAGCGUCUCAGAAGGGUGUGAACAUG [Ex NG2 #33] (Eterna round: R96, puzzle: Exclusion NG 2)	–	–	–	36.4 nM	20.3 nM	24.7 nM
AAAUUAGCAAGUAGAUCCGACAUGAGGAUCACCCAUGUUAUCUGAAAGAACGCAGAAUAAUUGUGAGCUCGUCUAAA [Sensor-V1 #3] (Eterna round: R97, puzzle: Sensor, turn-off variant 1)	–	–	–	162 nM	–	181 nM
UAAUUGUGAGGAUAUUCGUAUAACACGGAGACGUGUUGUACGGAGAAGGCACAUGAGGAUCACCCAUGUUCCUU [Mat - Exclusion 4 - JL Mod - D18] (Eterna round: R97, puzzle: Exclusion 4)	–	–	–	96 nM	–	15.2 nM
UGGAUAACAGGAUAUACAUGAGGAUCACCCAUGUUUCCGGACGGAGACGAAUCCUAGAGUAGAAGGGUUAUCCC [Eternabot (Original) Solution 17] (Eterna round: R97, puzzle: Exclusion 3)	–	–	–	388 nM	–	362 nM
UAUAUAUAGUAAGGAUAUGUAUUUAUUCUAUAAACAGAAGGUACUGACAUGAGGAUCACCCAUGUUUUAGUGUGGGCAUGUAGA [JMF's solution 18] (Eterna round: R96, puzzle: Exclusion NG 1)	–	–	–	–	33 nM	–
CUUCACCCACCAAAGCUCACCCACAUACCUGCUCUGGUGACAUGAGGAUCACCCAUGUUUUUUGCCCGUCUUAUCUU [Leso] (puzzle: Sensor v3, turn-off variant 2)	40.7 nM	163 nM	41.4 nM	–	–	–
AGAUGCUCAAGUCGACAUGAGGAUCACCCAUGUACAGUUAAUGAGGAUAUCCGAGAUAAAUAAUAGGAGAAGGCAUGAUCAUGA [Ex NG3 #4] (Eterna round: R96, puzzle: Exclusion NG 3)	–	–	–	103 nM	47.3 nM	102 nM
UACAUGAGGAUCACCCAUGUUUUGUCGUGUAUGGUAUUUAUCUAGGAUAUCAAUUGAGUUAUUUAUGAGAAGGAGAAUAUUAAU [JMF's solution 59] (Eterna round: R96, puzzle: Exclusion NG 3)	–	–	–	–	31.6 nM	–
UCAAAGUCAGGAUAUACAUGAGGAUCACCCAUGUAAAAUUUUAAUUUAAUUUGAAGGUGUAGAAGGGACAAACU [Ex3 #34] (Eterna round: R97, puzzle: Exclusion 3)	–	–	–	39.2 nM	–	38.8 nM
ACUAGCUUUUUGCAUUUUAGGUUUGUUGCUUCGUAUGUAACAUGAGGAUCACCCAUGUAUUACUGAUGUCGUCGUUU [JR_SV3TOV2_Sub090] (puzzle: Sensor v3, turn-off variant 2)	18.4 nM	16.5 nM	18.5 nM	–	–	–
GUCGUACAUGAGGAUCACCCAUGUGAGGAUAUGAGUGGUGCUGCUAGGUAGUAUAGACUCAGAAGGCGCAUGAU [Malcxlusion 2 - Jieux - Exclusion 1] (Eterna round: R97, puzzle: Exclusion 1)	–	–	–	250 nM	–	91.5 nM
GGCAUCGGAGGAUAUACUUAUGGUGAUACCAGAAGCUUUCUACUUGAGGAUCACCCAAGUAGAAGGCCGAUGCC [jl-ex2.4.86 ViennaUCT mod] (Eterna round: R97, puzzle: Exclusion 2)	–	–	–	17.5 nM	–	26.2 nM
GUAAAGUGAGGAUAUGCUGGAGGUGUAUUCUACGUGUCGAAACAUGAGGAUCACCCAUGUAGAAGGCACGGGCG [Sozaquce] (puzzle: Exclusion 2)	–	10 nM	–	–	–	–

Sequence	apparent KD of MS2 coat protein [1]	apparent KD of MS2 coat protein [2]	apparent KD of MS2 coat protein [3]	apparent KD of MS2 coat protein (input ligand: FMN 200 uM)	apparent KD of MS2 coat protein [4]	apparent KD of MS2 coat protein (input ligand: none)
UAAAAUAGUGUGAGGAUAUGCUGGUCCUUGGAUCAGCAGAAGGCACAUGAGGAUCACCCAUGUAGAUAAUAAUA [Mat - Exclusion 4 - JL Mod - D26] (puzzle: Brourd's mod of Exclusion 4)	189 nM	49.6 nM	78 nM	–	–	–
UAAUUGAUUAAUAGAUUAUACAUGAGGAUCACCCAUGUAGGUCCUACGUGCCAUUUAAGCAGCUCGUCUUAUUCCCA [Sensor-V1 #68] (Eterna round: R97, puzzle: Sensor, turn-off variant 1)	–	–	–	41.8 nM	–	49 nM
GCGCCAUCGUGAGAUGGCGUAAAUACAUGAGGAUCACCCAUGUAGGAUAUCGAUUGCUUUGCAGUCGAGAAGGGCAAGGUAUUU [JL ENG3 3.90] (Eterna round: R96, puzzle: Exclusion NG 3)	–	–	–	28.4 nM	18.1 nM	24.9 nM
AUGCCCUGAGGAUAUCUCAUCCCGCACAUGAGGAUCACCCAUGUUCUCCUCCGGGCUCCGAGAGAAGGCAGGCCUA [Armus7] (Eterna round: R97, puzzle: Exclusion 5)	–	–	–	80.1 nM	–	53.5 nM
GUAGAGUCAGGAUAUACAAGAUCGAAAGAUCGAAGAUUUAUACAUGAGGAUCACCCAUGUAGAAGGGACUCUAC [ChP 11-04-2015 #4] (puzzle: Exclusion 2)	–	12.4 nM	–	–	–	–
AAAUACAAGCAAAGAUCUUACAUGAGGAUCACCCAUGUGCUCGUCUUAUAAAGUACUAUCACGAAAGUGAUAGUACA [Sensor 3, v1 - 29] (puzzle: Sensor v3, turn-off variant 1)	19.5 nM	108 nM	19.1 nM	–	–	–
GAAAACGCUGAGGAUAUUUCUGAUCAAAGCAGCAAAGAAGGCAGCACAUGAGGAUCACCCAUGUGGUCUUCAAG [Mat - Exclusion 6 - JL Mod - D12] (Eterna round: R97, puzzle: Exclusion 6)	–	–	–	243 nM	–	44.7 nM
CUUGUACAUGAGGAUCACCCAUGUUAGGAUAUCUCGCCGUCGGCUUGCCGACGGUAUUAGAGAAGGGACUAGGG [JL Tixe mod 5] (puzzle: Exclusion 1)	–	38.8 nM	–	–	–	–
AGGUGUUUCGUAGGAUAUGAGGAUCACCCAUAGAAGGAUAUCGAAAGAGAAGGUCUGAGGAUUACCCAGAAGGACGGGACGUCA [pwkr exNG2 2xF5 2xFMN.10] (Eterna round: R96, puzzle: Exclusion NG 2)	–	–	–	570 nM	103 nM	145 nM
UUUUAGAGAGGAUAUAUAUAGUGAAACAUGAGGAUCACCCAUGUAAUUAUAUGGAUGUAAAUAGAAGGCUCAUUUA [JL-ex5-3.02] (puzzle: Exclusion 5)	35.7 nM	31.1 nM	30.7 nM	–	–	–
GGAGGAAGAGAGGAUAUGCGCUCAAGGAGAAAAGCAGAAGGUUCAACAUGAGGAUCACCCAUGUAUGAUCCUCA [AK-MS2ROC-r4-exclusion6-4] (Eterna round: R97, puzzle: Exclusion 6)	–	–	–	342 nM	–	203 nM
CGUUGGCGAGGAUAUACAUGAGGAUCACCCAUGUGAGAGAUACUAGUGAGGUCGAUUAGUAGAAGGCGCUGACG [Mat X3R4 m1] (Eterna round: R97, puzzle: Exclusion 3)	–	–	–	949 nM	–	34.9 nM
ACAUUGCGAGGAUAUACAUGAGGAUCACCCAUGUGGUAGUGGAUACGGUAGGGCUAGUGUAGAAGGUGUUAUGA [EX3 #15] (Eterna round: R97, puzzle: Exclusion 3)	–	–	–	98.8 nM	–	132 nM
GAUCCGAUUGUCAGGAUAUUCAAAACGGCGCAAAAGAAGAAGGGACAUGAGGAUCACCCAUGUAUACGCCACCA [Usisbima] (Eterna round: R97, puzzle: Brourd's mod of Exclusion 4)	–	–	–	36.7 nM	–	332 nM
UGAUCUAGCGGAGGAUAUACAUGAGGAUCACCCAUGUAGAUAACAUGACCGUAGUCGUGUAUUGUGUAGAAGGCCGCUAGAUCU [JL ENG2 3.66] (Eterna round: R96, puzzle: Exclusion NG 2)	–	–	–	40.8 nM	14.3 nM	18.8 nM
GUCAGCUCGUGAGGAUAUACAUGAGGAUCACCCAUGUGAUCAAUAGCAGCUUCGGCUGCAAUAAUGUAGAAGGCACGAGCUGAC [ENG2/8-C] (Eterna round: R96, puzzle: Exclusion NG 2)	–	–	–	60.5 nM	76.2 nM	144 nM
AAUUAACAUCAGGAUAUGACUAGCCUCGGCUAGUCAGAAGGGAUGACAUGAGGAUCACCCAUGUGAUCAAUUAA [E6/2-A2] (Eterna round: R97, puzzle: Exclusion 6)	–	–	–	392 nM	–	108 nM
